The text below walks through data of patent US8030017B2, “Thermostable luciferases and methods of production” (Promega Corporation, priority 1997, dated 2011).

The nature of data set [1]: Robotic quantitative screen of E. coli lysates: signal stability (S), sustained enzymatic turnover. The class given is biochemical. The conditions noted are these: inverse ratio with reference; Control is Luc85-4F12 at 65° C. (=1).
Data set [2] in a line: Thermostability (half-life, retained activity) of luciferases incubated in aqueous solution at different temperatures. The class given is physicochemical. Conditions: for loss in activity: aqueous solution.
Data set [3] can be described thus: Michaelis-Menten constant for luciferin of purified mutants. The class given is biochemical. The conditions noted are these: purified enzyme.
The nature of data set [4]: Michaelis-Menten constant for ATP of purified mutants. The class given is biochemical. Conditions: purified enzyme.
Data set [5] can be described thus: Retention of luminescence activity at pH 4.5 and 48° C. The class given is physicochemical. The conditions noted are these: pH 4.5 and 48° C. (FIG. 54B). The protocol: Three populations of random mutants were produced using clone Luc90-1B5 as a template. These three populations were screened on the robot as experiments 114, 115, and 117. […] These screening conditions were biased to select clones that have increased retention of luminescence activity over time at pH 4.5 at 48° C. and increased luminescence activity when assayed at pH 7.1 with 10 μM ATP. Seventeen clones from experiment 114, seven clones from experiment 115, and ten clones from experiment 116 were shuffled together using sPCR and selected mutants from this screen were run on the robot as experiment 117. Eighteen clones were selected from experiment 117.

B1: Luc90-1B5: mutant luciferase, SEQ ID NO:24 (protein)
chain: MADKNILYGPEPFYPLEDGTAGEQMFDALSRYADIPGCIALTNAHTKENVLYEEFLKLSCRLAESFKKYGLKQNDTIAVCSENGLQFFLPVIASLYLGIIVAPVNDKYIERELIHSLGIVKPRIVFCSKNTFQKVLNVKSKLKSIETIIILDLNEDLGGYQCLNNFISQNSDSNLDVKKFKPYSFNRDDQVALIMFSSGTTGLPKGVMLTHKNIVARFSLAKDPTFGNAINPTTAILTVIPFHHGFGMMTTLGYFTCGFRVVLMHTFEEKLFLQSLQDYKVESTLLVPTLMAFLAKSALVEKYDLSHLKEIASGGAPLSKEIGEMVKKRFKLNFVRQGYGLTETTSAVLITPKGDAKPGSTGKIVPFHAVKVVDPTTGKILGPNEPGELYFKGPMIMKGYYNNEEATKAIIDNDGWLRSGDIAYYDNDGHFYIVDRLKSLIKYKGYQVAPAEIEGILLQHPYIVDAGVTGIPDEAAGELPAAGVVVQTGKYLNEQIVQDYVASQVSTAKWLRGGVKFLDEIPKGSTGKIDRKVLRQMFEKHTNG
modifications: Mutant luciferase
A word on the half-life: it is the time in which the quantity being followed falls by half. A low value points to rapid decline. In general, Km refers to the substrate concentration at which the rate is half of its maximum. On to B1, for which the “Signal stability (S)” value in data set [1] was 1.0011. The “increased thermostability compared to LucPpe2 [T249M]” value in data set [2] is “about 35 °C”. In addition, the stability entry in data set [2] (22° C. over several weeks, pH 6.5 (FIG. 16B)) is on record as “stable”. Further, the activity loss entry in data set [2] (65° C. over several hours, citrate buffer at pH 6.5 (FIG. 16A)) was “very little activity loss”. Moreover, the half-life was 27 h in data set [2] (65° C., same buffer conditions as Table 2 (FIG. 16A)) and “about 3 minutes” in data set [5]. This molecule gave an activity maintained in data set [2] (after 120 hours (5 days) at 50° C., 25 mol/L citrate pH 6.5, 150 mmol/L NaCl, 1 mg/mL BSA, 0.1 mmol/L EDTA, 5% glycerol) of 75%. Further, the loss in activity in data set [2] (2 hours at 50° C.), in data set [2] (5 hours at 65° C.) and in data set [2] (over 6 weeks at 22° C.) was 5% each time. Also, the Km in data set [3] turned out to be 2.2 µM; in data set [4], 3 µM.
